What was measured:
[1] = target: T1, EhCP1 (Cysteine Protease 1 of Entamoeba histolytica) (Entamoeba histolytica, UniProt Q01957); assay: inhibition of purified recombinant enzyme, hydrolysis of Z-Arg-Arg-pNA and Z-Arg-Arg-AMC; format: biochemical
T1 construct: gene CP1; pro-mature polypeptide (Ile14 to Leu315), N-terminal hexahistidine tag

[2] = tested on: N=C(N)NCCC[C@H](NC(=O)OCc1ccccc1)C(=O)N[C@@H](CCCNC(=N)N)C(=O)Nc1ccc([N+](=O)[O-])cc1; assay: purified protein
[3] = tested on: Cc1cc(=O)oc2cc(NC(=O)[C@H](CCCNC(=N)N)NC(=O)[C@H](CCCNC(=N)N)NC(=O)OCc3ccccc3)ccc12; assay: purified protein

T1 sequence (Q01957 14-315): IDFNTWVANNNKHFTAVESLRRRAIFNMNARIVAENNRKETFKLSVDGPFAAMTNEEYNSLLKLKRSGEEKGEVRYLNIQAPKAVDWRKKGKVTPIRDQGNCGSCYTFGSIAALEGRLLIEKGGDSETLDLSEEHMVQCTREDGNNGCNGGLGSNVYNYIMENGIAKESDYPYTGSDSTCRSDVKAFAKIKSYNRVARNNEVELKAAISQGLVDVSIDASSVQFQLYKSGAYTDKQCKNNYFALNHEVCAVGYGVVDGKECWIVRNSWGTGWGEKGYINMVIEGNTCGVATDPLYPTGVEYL

| Compound | IC50 [1] [nM] | Km [2] [µM] | Km [3] [µM] |
| --- | --- | --- | --- |
| CC(C)C[C@H](NC(=O)[C@H]1O[C@@H]1C(=O)O)C(=O)NCCCCN=C(N)N [E-64, L-trans-3-carboxyoxiran-2-carbonyl-L-leucylagmatine] | 1000 |  |  |
| EhCP1 (Cysteine Protease 1 of Entamoeba histolytica) (Entamoeba histolytica HM-1:IMSS) |  | 57.1 | 6.7 |

— paper PMC5883314, “Soluble expression of an amebic cysteine protease in the cytoplasm of Escherichia coli SHuffle Express cells and purification of active enzyme” (BMC Biotechnology, 2018)
